In the assay the target is human ACE2-Fc (human) (UniProt Q9BYF1). As to the kind of experiment: ELISA. (In general: In an ELISA, binding on a coated surface is turned into a signal by an enzyme label.)
Sequence of human ACE2-Fc (human) (Q9BYF1 18-740): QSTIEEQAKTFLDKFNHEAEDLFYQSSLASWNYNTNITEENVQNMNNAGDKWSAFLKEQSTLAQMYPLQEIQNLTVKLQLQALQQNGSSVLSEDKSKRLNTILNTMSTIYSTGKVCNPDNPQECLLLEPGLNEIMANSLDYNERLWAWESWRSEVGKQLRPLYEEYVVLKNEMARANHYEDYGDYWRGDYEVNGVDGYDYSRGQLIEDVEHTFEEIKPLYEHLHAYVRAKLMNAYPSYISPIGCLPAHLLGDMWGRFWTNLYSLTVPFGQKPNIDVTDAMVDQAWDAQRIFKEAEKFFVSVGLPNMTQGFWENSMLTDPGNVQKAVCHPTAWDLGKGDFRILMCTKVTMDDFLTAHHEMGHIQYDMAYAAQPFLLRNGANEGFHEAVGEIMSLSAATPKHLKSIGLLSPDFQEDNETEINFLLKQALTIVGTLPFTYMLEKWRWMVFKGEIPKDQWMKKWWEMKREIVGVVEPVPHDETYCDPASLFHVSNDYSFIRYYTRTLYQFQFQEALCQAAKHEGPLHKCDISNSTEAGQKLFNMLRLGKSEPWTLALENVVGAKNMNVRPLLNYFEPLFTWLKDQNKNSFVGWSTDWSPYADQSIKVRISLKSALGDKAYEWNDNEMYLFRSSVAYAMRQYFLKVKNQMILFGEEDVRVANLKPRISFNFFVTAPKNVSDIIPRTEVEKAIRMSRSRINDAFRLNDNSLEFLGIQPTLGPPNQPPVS

Consider “SARS-CoV S 2P ectodomain trimer (from UniProt P59594 14-1195) (domain or fragment)”, for which the EC50 (in general, the concentration that produces a half-maximal response) amounted to 4.11 nM. In other words, the single-digit nanomolar range.
